Target: T1, C3b (purified; species not stated in Examples 12, 13, 19, 20) (Homo sapiens (Human), UniProt P01024 23-667; P01024 749-1663, The two chains are disulfide-linked. The internal thioester of the alpha' chain (Cys-Gln) is broken in C3b. Natural glycosylation is present. The protein carries an Alexa488 label in the …)
T1 construct: also called complement C3b; C3b-A488
Experiment: SPR (Biacore 2000), C3b amine-coupled to a CM5 chip, CRIg-Fc injected

B1: murine CRIg-Fc fusion protein (Fc fusion)
chain: HPTLKTPESVTGTWKGDVKIQCIYDPLRGYRQVLVKWLVRHGSDSVTIFLRDSTGDHIQQAKYRGRLKVSHKVPGDVSLQINTLQMDDRNHYTCEVTWQTPDGNQVIRDKIIELRVRKYNPPRINTEAPTTLHSSLEATTIMSSTSDLTTNGTGKLEETIAGSGRNLPIFAIIFIISLCCI
notes: Produced in CHO cells; also called muCRIg-Fc; MuCRIg Fc; not shown: hinge, CH2 and CH3 domains of murine IgG1
Kd: 250 nM
